The source of these data is the supplement of paper PMC11780869.

For the data set, the system named is Bacillus subtilis. Put plainly: cleaved RNA product abundance (RNA/gDNA barcode ratio) relative to median wild-type variant (ratio to wild type); higher = more accumulation of the downstream cleavage product. The procedure, abridged:
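Truncated aprE or tetM reporter mRNAs with barcoded RNase Y cleavage-site windows, mutagenized from oligos at a 9% error rate, sat in the B. subtilis chromosome. Cells grew in LB at 37°C from OD600 0.0003 to 0.3. Gel-selected cleaved RNA was reverse transcribed and its barcodes sequenced with those from genomic DNA, collapsing by UMI. Cleaved product abundance equals the RNA:gDNA barcode ratio per construct over the median construct with the unmutated site.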

Setting [1] is: experiment (reporter, strain, medium): exp 4a: truncated aprE reporter, strain BJT201 with 2% xylose (RNase J1 expressed), cleavage site: cggR-gapA (positions -7 to +36 mutated).
Where [2] appears, read: experiment (reporter, strain, medium): exp 8a: truncated aprE reporter, strain BJT201 with 2% xylose (RNase J1 expressed), cleavage site: glnRA (positions -5 to +31 mutated).
Where [3] appears, read: experiment (reporter, strain, medium): exp 2b: truncated aprE reporter, strain BJT200, cleavage site: cggR-gapA (positions -7 to +36 mutated).
Setting [4] is: experiment (reporter, strain, medium): exp 6: tetM reporter, strain 168, cleavage site: cggR-gapA (positions -7 to +36 mutated).

Turning to “ACAGACGAAGGAGCCGCAAAGAAGTTATTAAGGGATGAATAAACCCGCAATATAAATATCTCTCACTTATTTAAA”, the “cleaved RNA product abundance” value under setting [1] is 0.103.

On to “CGACATGTCCCGCTTCTTTCATTATTCCGTTAGCAACTGTTTTGCTATATACATTTACCCTTTAAGAGGAGGAAT”, for which the “cleaved RNA product abundance” value under setting [2] is 0.558.

With “ACAGACGAAGGAGCCGCAAAGAAATTATTAATGGATGAATAATCCCTCAATATAAATATCTCTCACTTATTTAAA”, the “cleaved RNA product abundance” value reads like this: under setting [3], 0.122; under setting [1], 0.169.

As for “ACAGACGAAGGAGCCGCAAAGAAGTTATAAACGGATGAATAATCCCTCAATATAAATATCTCTCACTTATTTAAA”, the “cleaved RNA product abundance” value by setting is: under setting [3], 0.132; under setting [1], 0.181.

“CGACATGTCCCGCTTCTTTCATTAATCCGTTAGAAACTGTTTTGCTATATACATTTACCTTTTAAGAGGAGGAAT”: the “cleaved RNA product abundance” value under setting [2] worked out at 0.292.

For the sequence “CGACATGTCCCGCTTCTTTCATTAATTCGTTAGCAACTGTTTTGCTATATACATGTACCTTTTAAGAGGAGGAAT”, under setting [2], the “cleaved RNA product abundance” value stood at 0.933.

Consider “ACAGACGAAGGAGCCGCAAAGAAGTTATTAAGGGATTAATAATCCCTCAATATCAATATCTCTCACTTATTTAAA”, for which the “cleaved RNA product abundance” value under setting [1] was found to be 0.0629.

“ACAGACGAAGGAGCCGCAAAGAAGTTATTAAGGGATGAATAATCCCTCAATATAAATATGTCTCACTTATTTAAA”: under setting [1], the “cleaved RNA product abundance” value worked out at 0.713.

For “ACAGACGAAGGAGCCGCAAACAAGTTATTAATGGATGAATAATCCCTCAATATAAATATCTCTCACTTATTTAAA”, the “cleaved RNA product abundance” value under setting [3] stood at 0.0836 and the “cleaved RNA product abundance” value under setting [1] amounted to 0.112.

As for “ACAGACGAAGGAGCCGCAAAGAAGTTATTAAGGGTTAAATAATCCCTCAATATAAATATCTCTCACTTATTTAAA”, under setting [1], the “cleaved RNA product abundance” value was 0.753.

Turning to “ACAGACGAAGGAGCCGCAAAGAAGTTAGTAAGGGATGAATAATCCATCAATATAAATATCTCTCACTTATTTAAA”, the “cleaved RNA product abundance” value under setting [3] came out at 0.251.

Turning to “ACAGACGAAGGAGCCGCAAAGAACTAATTAAGGGATGAATAATCCCTCAATATAAATATCTCTCACTTATTTAAA”, the “cleaved RNA product abundance” value under setting [1] stood at 0.321.

For “ACAGACGAAGGAGCCGCAAAGAAGTTATTAAGGGCTGAATAACCCCTCAATATAAATATCTCTCACTTATTTAAA”, the “cleaved RNA product abundance” value under setting [1] is 0.424.

With “CGACATGTCCCGCTTCTTTCATTAATGAGTTAGCAACTGTTTTGCTATATACATTTACCTTTTAAGAGGAGGAAT”, the “cleaved RNA product abundance” value under setting [2] amounted to 1.18.

For the sequence “ACAGACGAAGGAGCCGCAAAGAAGTTATTAAGGGATAAATAATCCCTCAATTTAAATATCTCTCACTTATTTAAA”, the “cleaved RNA product abundance” value under setting [1] is 0.167.

As for “ACAGACGAAGGAGCCGCAAAGAAGTTATTAAGGCATGAATAATCCCTCAATATAATTATCTCTCACTTATTTAAA”, the “cleaved RNA product abundance” value runs as follows: under setting [3], 0.0921; under setting [1], 0.095.

In the case of “ACAGACGAAGGAGCCGCAAAGAAGTTATTAACGGAGGAATAATCCCTCAATATAAATATCTCTCACTTATTTAAA”, the “cleaved RNA product abundance” value under setting [1] stood at 0.171.

Regarding “ACAGACGAAGGAGCCGCAAAGAAGTTATTAAGTGATCAATAATCCCTCAATATAAATATCTCTCACTTATTTAAA”, the “cleaved RNA product abundance” value by setting is: under setting [3], 0.0674; under setting [1], 0.137.

With “CGACATGTCCCGCTTCTTTCATTAATCCGTTAGCAACTGCTTTGCTATATACATTAACCTTTTAAGAGGAGGAAT”, the “cleaved RNA product abundance” value under setting [2] turned out to be 0.575.

In the case of “ACAGACGAAGGAGCCGCAAAGAAGTTATTAATGGATGAATAATCCCTCAATATAAATATCTCTCACTTATTTAAA”, the “cleaved RNA product abundance” value reads like this: under setting [3], 0.122; under setting [1], 0.155; under setting [4], 0.174.

Take “ACAGACGAAGGAGCCGCAAAGAATTTATTAAGGTATGAATAATCCCTCAATATAAATATCTCTCACTTATTTAAA”: the “cleaved RNA product abundance” value reads like this: under setting [3], 0.102; under setting [1], 0.178.

As to “ACAGACGAAGGAGCCGCAAAGAAGTTCTTAAGGGATGAATGATCCCTCAATATAAATATCTCTCACTTATTTAAA”, the “cleaved RNA product abundance” value under setting [3] amounted to 0.107.

As for “ACAGACGAAGGAGCCGCAAATAAGTTATTAAGGGATGAATAATGCCTCAATATAAATATCTCTCACTTATTTAAA”, under setting [1], the “cleaved RNA product abundance” value was determined as 0.145.

In the case of “ACAGACGAAGGAGCCGCAATGAAGATATTAAGGCATGAATAATCCCTCAATATAAATATCTCTCACTTATTTAAA”, the “cleaved RNA product abundance” value under setting [1] came out at 0.138.

Turning to “ACAGACGAAGGAGCCGCAAAGAAGTTATTAACGGATGAATAATCCCTAAATATAAATATCTCTCACTTATTTAAA”, the “cleaved RNA product abundance” value is, setting by setting: under setting [1], 0.225; under setting [4], 0.194.

With “ACAGACGAAGGAGCCGCAAAGAAGTTATTAAGGTATGAATAATTCCTCAATATAAATATCTCTCACTTATTTAAA”, the “cleaved RNA product abundance” value is, setting by setting: under setting [3], 0.0842; under setting [1], 0.156.

Take “ACAGACGAAGGAGCCGCAAATAAGTTATTAAGGGATGAATCATCCCTCAATATAAATATCTCTCACTTATTTAAA”: the “cleaved RNA product abundance” value under setting [3] is 0.769 and the “cleaved RNA product abundance” value under setting [1] came to 0.899.

Regarding “ACAGACGAAGGAGCCGCAAAGAACTTATTCAGGGATGAATAATCCCTCAATATAAATATCTCTCACTTATTTAAA”, the “cleaved RNA product abundance” value under setting [1] came out at 0.525.

Consider “ACAGACGAAGGAGCCGCAAAGAAGTTATTAAGGGATGAATAATCCCACTATATAAATATCTCTCACTTATTTAAA”, for which, under setting [1], the “cleaved RNA product abundance” value is 0.282.

As for “ACAGACGAAGGAGCCGCAACGATGTTATTAAGGGATGAATAATCCCTCAATATAAATATCTCTCACTTATTTAAA”, the “cleaved RNA product abundance” value under setting [1] was 1.36.

Take “ACAGACGAAGGAGCCGCAAACAAGTTTTTAAGGGATGAATAATCCCTCAATATAAATATCTCTCACTTATTTAAA”: the “cleaved RNA product abundance” value amounted to 0.289 under setting [3] and 0.304 under setting [1].

As to “ACAGACGAAGGAGCCGCAAAGAAGTTATTAAGGGATGAATAATCTTTCAATATAAATATCTCTCACTTATTTAAA”, the “cleaved RNA product abundance” value under setting [1] was 0.122.

In the case of “ACAGACGAAGGAGCCGCAAAGAACTTATAAAGGGATGAATAATCCCTCAATATAAATATCTCTCACTTATTTAAA”, the “cleaved RNA product abundance” value came out at 0.24 under setting [3] and 0.263 under setting [1].

As to “ACAGACGAAGGAGCCGCAAAGAAGCTATTAAGGGATGTATAATCCCTCAATATAAATATCTCTCACTTATTTAAA”, the “cleaved RNA product abundance” value under setting [1] is 0.576.

On to “ACAGACGAAGGAGCCGCAAAAAAGTTATTAACGGATTAATAATCCCTCAATATAAATATCTCTCACTTATTTAAA”, for which, under setting [1], the “cleaved RNA product abundance” value was 0.142.

As for “ACAGACGAAGGAGCCGCAAAGAAGTTATTAAGGAATGAAAAATCCCTCAATATAAATATCTCTCACTTATTTAAA”, the “cleaved RNA product abundance” value stood at 0.0892 under setting [3] and 0.137 under setting [1].

In the case of “ACAGACGAAGGAGCCGCATAGAAGTTATTAAGGGAAGAATAATCCCTCAATATAAATATCTCTCACTTATTTAAA”, under setting [1], the “cleaved RNA product abundance” value came out at 0.6.

As to “ACAGACGAAGGAGCCGCAAAGAAGTTACTAAAGGATGAATAATCCCTCAATATAAATATCTCTCACTTATTTAAA”, the “cleaved RNA product abundance” value under setting [3] came to 0.0999 and the “cleaved RNA product abundance” value under setting [1] was 0.171.

For the sequence “ACAGACGAAGGAGCCGCAAAGAAGTTTTTAAGGGATGAATAATCCCTCAATAAAAATATCTCTCACTTATTTAAA”, the “cleaved RNA product abundance” value under setting [1] was found to be 0.0781.

“ACAGACGAAGGAGCCGCAAAGAAGATATTAAGGGATGAATAATCCCACAATATAAATATCTCTCACTTATTTAAA”: the “cleaved RNA product abundance” value under setting [1] turned out to be 0.311.

For “ACAGACGAAGGAGCCGCAAAGAATTTAGTAAGGGATGAATAATCCCTCAATATAAATATCTCTCACTTATTTAAA”, the “cleaved RNA product abundance” value under setting [1] was 0.337.

As to “ACAGACGAAGGAGCCGCAAAGAAGTTATTAAGGCATGAATATTCCCTCAATATAAATATCTCTCACTTATTTAAA”, the “cleaved RNA product abundance” value reads like this: under setting [3], 0.119; under setting [1], 0.144.

For the sequence “ACAGACGAAGGAGCCGCAAAGAAATTACTAAGGGATGAATAATCCCTCAATATAAATATCTCTCACTTATTTAAA”, the “cleaved RNA product abundance” value under setting [1] is 0.247.

“CGACATGTCCCGCTTCTTTCATTAATCCATTAGCAACTGTTTTGCTATATACATTTACCTTTTAAGAGGAGGAAT”: the “cleaved RNA product abundance” value under setting [2] came to 0.857.

As for “CGACATGTCCCGCTTCTTTCATTAATCCGTTACCAACTGTTTTGCTATTTACATTTACCTTTTAAGAGGAGGAAT”, the “cleaved RNA product abundance” value under setting [2] turned out to be 0.118.

On to “ACAGACGAAGGAGCCGCAAAAAAGTTATTAAGGGATGAATAATCCCTCAATATACATATCTCTCACTTATTTAAA”, for which, under setting [1], the “cleaved RNA product abundance” value worked out at 0.996.

Consider “ACAGACGAAGGAGCCGCAAAGAAGTTATCAAGGGATGAATAATCCCTCAAAATAAATATCTCTCACTTATTTAAA”, for which the “cleaved RNA product abundance” value came to 0.2 under setting [3] and 0.289 under setting [1].

“ACAGACGAAGGAGCCGCAAAGAAGTTATTAAGGAATGAATAATCCCTCAAAATAAATATCTCTCACTTATTTAAA”: the “cleaved RNA product abundance” value amounted to 0.0937 under setting [3] and 0.122 under setting [1].

Consider “ACAGACGAAGGAGCCGCAAAGAAGTTATTCAGGGATGAATAATTCCTCAATATAAATATCTCTCACTTATTTAAA”, for which the “cleaved RNA product abundance” value under setting [1] came to 0.513.

With “ACAGACGAAGGAGCCGCAAAGAAGATATTAAGGGATGAATAATCCCTCAACATAAATATCTCTCACTTATTTAAA”, the “cleaved RNA product abundance” value by setting is: under setting [3], 0.131; under setting [1], 0.157.

As to “ACAGACGAAGGAGCCGCAAAGAAGTTAGTAAGGAATGAATAATCCCTCAATATAAATATCTCTCACTTATTTAAA”, under setting [3], the “cleaved RNA product abundance” value worked out at 0.0912.

As for “ACAGACGAAGGAGCCGCAAAGAAGTAATTAAGGGATGCATAATCCCTCAATATAAATATCTCTCACTTATTTAAA”, the “cleaved RNA product abundance” value reads like this: under setting [3], 0.186; under setting [1], 0.288.

For the sequence “CGACATGTCCCGCTTCTTTCATTAATCCGTTAGCAAATGTTTTGCTATATACATTTAACTTTTAAGAGGAGGAAT”, the “cleaved RNA product abundance” value under setting [2] came out at 1.03.
